Measured values taken from the supplement of paper PMC12855868.

B1: library; numbered along this chain (parent)
chain: MAAAGGARLLRAASAVLGGPAGRWLHHAGSRAGSSGLLRNRGPGGSAEASRSLSVSARARSSSEDKITVHFINRDGETLTTKGKVGDSLLDVVVENNLDIDGFGACEGTLACSTCHLIFEDHIYEKLDAITDEENDMLDLAYGLTDRSRLGCQICLTKSMDNMTVRVPETVADARQSIDVGKTS

Variants of: B1
Test: scaled log2 fold change in cell abundance, elesclomol vs control (0 = silent mean, 1 = nonsense mean) (scaled log2 ratio); higher = higher viability under elesclomol (loss of FDX1 cuproptosis function)
Settings: glucose 10 mM
[1] = with ABC1 FDX1 KO, elesclomol 5 nM, 14 days
[2] = with HEK293T FDX1 KO, elesclomol 40 nM, 11 days
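Further: variant abundance is its share of total variant reads in each endpoint sample, from next-generation sequencing of the integrated ORF PCR-amplified out of genomic DNA.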

Row | Variant | scaled log2 fold change [1] | scaled log2 fold change [2]
1 | C152A | 1.22 | 1.33
2 | C152I | 1.12 | 1.09
3 | L150W | 1.06 | 1.11
4 | L150N | 0.899 | 0.249
5 | L150H | 0.563 | -0.201
6 | L150Q | 0.537 | 0.364
7 | L150M | -0.0616 | -0.103
8 | L150T | 0.595 | -0.16
9 | L150G | 0.757 | 0.513
10 | L150K | 1.24 | 1.51
11 | L150P | 1.09 | 0.82
12 | L150C | -0.0973 | 0.196
13 | L150S | 0.479 | 0.331
14 | L150I | 0.2 | -0.337
15 | L150Y | 0.721 | 0.392
16 | L150F | 0.244 | -0.211
17 | L150V | 0.447 | -0.147
18 | L150R | 1.05 | 0.41
19 | L150A | 0.335 | 0.397
20 | L150D | 1.09 | 0.982

Row | Variant | scaled log2 fold change [1] | scaled log2 fold change [2]
21 | L150E | 0.981 | 1.27
22 | A141Y | -0.374 | -0.341
23 | A141G | -0.119 | 0.016
24 | A141N | -0.0904 | 0.596
25 | A141S | -0.0824 | 0.987
26 | A141I | -0.168 | 0.617
27 | A141D | 0.178 | -0.445
28 | A141H | 0.134 | -0.527
29 | A141F | -0.22 | 1.03
30 | A141W | -0.0378 | -0.209
31 | A141C | 0.249 | -1.33
32 | A141T | 0.135 | 0.788
33 | A141K | 0.122 | -0.0127
34 | A141M | -0.0992 | 0.123
35 | A141R | 0.0996 | 0.0982
36 | A141V | 0.00876 | 0.0536
37 | A141P | 0.46 | -0.803
38 | A141L | -0.402 | 
39 | A141Q | 0.09 | 0.9
40 | A141E | 0.304 | -0.297

Row | Variant | scaled log2 fold change [1] | scaled log2 fold change [2]
41 | R149Q | 0.899 | 1.02
42 | R149Y | 0.871 | 0.839
43 | R149C | 0.906 | 1.99
44 | R149P | 1.05 | 0.985
45 | R149K | 0.66 | -0.00324
46 | R149E | 1.13 | 1.11
47 | R149V | 0.231 | 0.529
48 | R149D | 1.08 | 0.943
49 | R149L | 0.679 | 0.937
50 | R149S | 0.96 | 0.508
51 | R149G | 0.658 | 0.436
52 | R149N | 1 | 1.05
53 | R149W | 1.07 | 1.1
54 | R149A | 0.375 | 0.982
55 | R149H | 0.625 | 0.597
56 | R149I | 0.876 | 0.53
57 | R149F | 0.872 | 1.08
58 | R149M | 0.689 | 0.499
